The values below come from US20110002926A1.

For assay [1], the target named is soluble HCV E2 (sE2661), HIS-tagged, baculovirus expressed (Hepatitis C virus (genotype not stated)). The experiment in a line: BIAcore SPR.
For assay [2] the target is unchanged. Description: BIAcore SPR, sE2 injected over antibody; lower end differs from Table 10. (In general: In SPR one partner is held on a chip, and binding of the other changes the refractive index at the surface.)
Assay [3] has as its target HCV E1E2 glycoproteins of genotype 2a (J6) (Hepatitis C virus genotype 2a (J6)) (UniProt P26660). Description: cell-based or functional assay.
Assay [4] addresses HCV E1E2 glycoproteins of genotype 1b (Con1) (Hepatitis C virus genotype 1b (Con1)) (UniProt Q9WMX2). The experiment in a line: cell-based or functional assay.
Assay [5] addresses soluble HCV E2 (sE2661), HIS-tagged, baculovirus expressed (Hepatitis C virus (genotype not stated)). The experiment in a line: BIAcore SPR, sE2 injected over antibody.

As a reminder, the Kd is the constant that tells how readily two partners part at equilibrium.

HCV E1E2 glycoproteins of genotype 1b (Con1) (Hepatitis C virus genotype 1b (Con1)), sequence (Q9WMX2 384-746 limits assumed, chain 1 of 2): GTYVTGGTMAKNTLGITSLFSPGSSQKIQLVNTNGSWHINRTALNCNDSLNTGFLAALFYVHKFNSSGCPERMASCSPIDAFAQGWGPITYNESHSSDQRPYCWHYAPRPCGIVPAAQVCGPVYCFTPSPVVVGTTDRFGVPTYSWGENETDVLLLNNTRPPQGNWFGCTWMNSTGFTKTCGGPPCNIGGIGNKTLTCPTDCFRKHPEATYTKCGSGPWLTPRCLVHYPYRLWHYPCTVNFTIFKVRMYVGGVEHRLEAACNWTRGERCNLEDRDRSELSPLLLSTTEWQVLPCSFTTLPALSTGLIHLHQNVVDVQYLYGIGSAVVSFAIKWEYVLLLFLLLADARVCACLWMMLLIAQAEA
HCV E1E2 glycoproteins of genotype 1b (Con1) (Hepatitis C virus genotype 1b (Con1)), sequence (Q9WMX2 192-383 limits assumed, chain 2 of 2): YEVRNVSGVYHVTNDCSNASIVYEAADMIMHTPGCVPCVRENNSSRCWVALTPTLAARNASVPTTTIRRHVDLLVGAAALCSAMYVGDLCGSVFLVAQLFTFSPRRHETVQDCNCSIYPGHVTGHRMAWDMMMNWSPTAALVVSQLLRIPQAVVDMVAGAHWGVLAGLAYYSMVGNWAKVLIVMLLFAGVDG

For the substance AP33 Fab, the Kd in assay [1] is 50 nM.
On to AP33 monoclonal antibody, for which the dissociation constant Kd in assay [2] fell in the range of 0.5 to 8 nM; in assay [5], 5 to 8 nM. In addition, the EC50 of HCVpp entry into Huh-7.5 cells (luciferase) was found to be 2.07 mg/L in assay [3] and 1.42 mg/L in assay [4].
